Assay [1] addresses recombinant CD81-LEL protein (large extracellular loop of human CD81) with a GST tag (human) (UniProt P60033). As to the kind of experiment: DPI, E2 protein added to immobilised CD81 together with small molecules 93033 and 16631.
Assay [2] has the same target. The assay can be described thus: DPI, E2 protein added to immobilised CD81 together with small molecules 689002 and 93033.
For assay [3] the target is unchanged. The assay can be described thus: DPI, E2 protein added to immobilised CD81 together with small molecule 689002.
For assay [4] the target is unchanged. The assay can be described thus: DPI, E2 protein added to immobilised CD81 together with small molecule 30930.
Assay [5] has the same target. As to the kind of experiment: DPI, E2 protein added to immobilised CD81 together with small molecule 93033.
Assay [6] shares this target. The assay can be described thus: DPI, E2 protein added to immobilised CD81 together with small molecules 93033 and 165665.
Assay [7] has the same target. As to the kind of experiment: DPI, E2 protein added to immobilised CD81 together with small molecule 165665.
Assay [8] has the same target. The assay can be described thus: DPI, E2 protein alone added to immobilised CD81.
For assay [9] the target is unchanged. As to the kind of experiment: DPI, E2 protein added to immobilised CD81 together with small molecules 30930 and 68365 (so in the source).

The record followed here is US20150328329A1, “LIGANDS THAT TARGET HCV-E2 BINDING SITES ON CD81 AND THERAPEUTIC METHODS USING THEM” (American University of Cairo, priority 2012, published 2015).

Regarding HCV E2 protein (ligand), the DPI Binding Response (Radians) in [1] worked out at 0.531 Radians; in [2] it was 0.401 Radians; in assay [3] it was 2.7 Radians; in [4], 2.53 Radians; in [5] it was 0.255 Radians; in assay [6], 0.765 Radians. Further, the DPI Binding Response (Radians) in assay [7] was -0.0047 Radians; in assay [8], 4.14 Radians; in assay [9], 1.45 Radians.
